In article PMC4618531 (BMC Microbiology, 2015):

Experiments:
[1] = target: Ralstonia solanacearum FabG1 (3-ketoacyl-ACP reductase, RSc1052), N-terminal hexahistidine-tagged (Ralstonia solanacearum GMI1000); test: SEC
RsFabG2 = target: T1, RsFabG2 (Ralstonia pseudosolanacearum, UniProt Q8XSV8); conditions: 50 μM NADPH, malonyl-ACP plus octanoyl-ACP or tetradecanoyl-ACP, 0.1 M sodium phosphate pH 7.0, 37 °C
T1 construct: gene fabG2

[2] = target: Ralstonia solanacearum FabG2 (3-ketoacyl-ACP reductase, RSp0359), N-terminal hexahistidine-tagged (Ralstonia solanacearum GMI1000); test: SEC
purified protein [3] = substrate: NC(=O)C1=CN([C@@H]2O[C@H](COP(=O)(O)OP(=O)(O)OC[C@H]3O[C@@H](n4cnc5c(N)ncnc54)[C@H](OP(=O)(O)O)[C@@H]3O)[C@@H](O)[C@H]2O)C=CC1; test: purified protein; conditions: 200 μM acetoacetyl-CoA, 0.1 M sodium phosphate pH 7, 0.1 M LiCl, varied: cofactor
purified protein [4] = substrate: CC(=O)CC(=O)SCCNC(=O)CCNC(=O)[C@H](O)C(C)(C)COP(=O)(O)OP(=O)(O)OC[C@H]1O[C@@H](n2cnc3c(N)ncnc32)[C@H](O)[C@@H]1OP(=O)(O)O; test: purified protein; conditions: 200 μM NADPH, 0.1 M sodium phosphate pH 7, 0.1 M LiCl

Molecule: Ralstonia solanacearum FabG1 (3-ketoacyl-ACP reductase, RSc1052), N-terminal hexahistidine-tagged (enzyme)
- stoichiometry N [1]: 4

Molecule: NC(=O)C1=CN([C@@H]2O[C@H](COP(=O)(O)OP(=O)(O)OC[C@H]3O[C@@H](n4cnc5c(N)ncnc54)[C@H](OP(=O)(O)O)[C@@H]3O)[C@@H](O)[C@H]2O)C=CC1 [NADPH]
- reconstituted 3-ketoacyl-ACP reduction with EcFabB and EcFabZ, urea gel (RsFabG2): Upon the addition of NADPH, a 3-ketoacyl-ACP reductase (EcFabG, RsFabG1 or RsFabG2) and EcFabZ

Molecule: Ralstonia solanacearum FabG2 (3-ketoacyl-ACP reductase, RSp0359), N-terminal hexahistidine-tagged (enzyme)
- stoichiometry N [2]: 4

B1: EcFabG (Escherichia coli K-12) (protein)
chain: MNFEGKIALVTGASRGIGRAIAETLAARGAKVIGTATSENGAQAISDYLGANGKGLMLNVTDPASIESVLEKIRAEFGEVDILVNNAGITRDNLLMRMKDEEWNDIIETNLSSVFRLSKAVMRAMMKKRHGRIITIGSVVGTMGNGGQANYAAAKAGLIGFSKSLAREVASRGITVNVVAPGFIETDMTRALSDDQRAGILAQVPAGRLGGAQEIANAVAFLASDEAAYITGETLHVNGGMYMV
- Km (purified protein [3]): 5.41 ± 1.3 µM
- Vmax (purified protein [3]): 3.54 µmol/min/mg
- kcat (purified protein [3]): 1.65 ± 0.43 s⁻¹
- Km (purified protein [4]): 4372.6 ± 105.1 µM
- Vmax (purified protein [4]): 97 µmol/min/mg
- kcat (purified protein [4]): 45.28 ± 4.3 s⁻¹
